Key:
[1] = melting temperature (ThermoFMN); higher = more thermostable
Experimental: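 Purified His-tagged ene reductases (1 mg/ml) in 50 mM sodium phosphate pH 7.4 with 0-30% (v/v) organic co-solvent. Melting temperature was measured by the ThermoFMN assay (FMN fluorescence, 20-90 °C at 1 °C/min, inflection point, triplicate). Specific initial activity was measured with 10 mM cyclohex-2-enone and 0.2 mM NAD(P)H (NADH for LacER) as A340 depletion, at room temperature (DMSO, 2-propanol, n-propanol) or 25 °C (EtOH, MeOH), in triplicate. The TsOYE Tm is above the 90 °C measurement range.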

[2] = specific initial activity, cyclohex-2-enone reduction (U mg-1); higher = more active
Experimental: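 Purified His-tagged ene reductases in 50 mM sodium phosphate pH 7.4 with 0-30% (v/v) organic co-solvent. Melting temperature was measured by the ThermoFMN assay (FMN fluorescence, 20-90 °C at 1 °C/min, inflection point, triplicate). Specific initial activity was measured with 10 mM cyclohex-2-enone and 0.2 mM NAD(P)H (NADH for LacER) as A340 depletion, at room temperature (DMSO, 2-propanol, n-propanol) or 25 °C (EtOH, MeOH), in triplicate. The TsOYE Tm is above the 90 °C measurement range.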

MNPKYKPLFEPFTFKSGVTINNRIAVAPMTHYASNEDGTISEAELDYIIPRSKEMGMVITACANVTPDGKAFPGQPAIHDDSNIPGLKKLAQAIQAQGAKAVVQIHHGGIECPSELVPQQDVVGPSDVFDNGKQIARALTEEEVENIVKAFGEATRRAIEAGFDGVEIHGANGYLIQQFYSPKTNQRTDRWGGSDEKRLAFPLAIVDEVKKAASEHAKGAFLVGYRLSPEEPETPGLTMTETYTLVDALGDKELDYLHISLMDVNSKARRGADPTRTRMDLLNERVGNKVPLIAVGSIHSADDALAVIENGIPLVAMGREILVDPNWTVKVKEGREKQIETVIKGTDKEKYHLPEPLWQAIVNTQGWVPYKD
Conditions	melting temperature, co-solvent: 2-propanol [°C]	melting temperature, co-solvent: dimethyl sulfoxide [°C]	melting temperature, co-solvent: ethanol [°C]	melting temperature, co-solvent: methanol [°C]	melting temperature, co-solvent: n-propanol [°C]	specific initial activity, co-solvent: 2-propanol	specific initial activity, co-solvent: dimethyl sulfoxide	specific initial activity, co-solvent: ethanol	specific initial activity, co-solvent: methanol	specific initial activity, co-solvent: n-propanol
[1], co-solvent concentration (% v/v): 0	54	54	54	54	54	–	–	–	–	–
[1], co-solvent concentration (% v/v): 5	46	51.7	51	52.3	43.7	–	–	–	–	–
[1], co-solvent concentration (% v/v): 10	39.3	51	45.3	49.7	33	–	–	–	–	–
[1], co-solvent concentration (% v/v): 15	39.3	50	42	43.7	31.3	–	–	–	–	–
[1], co-solvent concentration (% v/v): 20	33.7	50	38.7	44.3	30.3	–	–	–	–	–
[1], co-solvent concentration (% v/v): 25	32.7	49.7	38.3	42.3	29.3	–	–	–	–	–
[1], co-solvent concentration (% v/v): 30	33.7	49.7	36.3	40	30.3	–	–	–	–	–
[2], co-solvent concentration (% v/v): 0	–	–	–	–	–	5.75	4.09	5.73	5.71	5.25
[2], co-solvent concentration (% v/v): 5	–	–	–	–	–	6.02	4.4	5.9	6.14	5.2
[2], co-solvent concentration (% v/v): 10	–	–	–	–	–	6.11	4.34	6.22	5.62	4.82
[2], co-solvent concentration (% v/v): 15	–	–	–	–	–	6.21	4.41	6.67	5.36	4.55
[2], co-solvent concentration (% v/v): 20	–	–	–	–	–	6.17	4.2	6.21	5.05	4.07
[2], co-solvent concentration (% v/v): 25	–	–	–	–	–	5.81	4.35	6.62	5.09	3.69
[2], co-solvent concentration (% v/v): 30	–	–	–	–	–	5.26	4.2	5.96	4.27	2.94

MSFVKDFKPQALGDTNLFKPIKIGNNELLHRAVIPPLTRMRALHPGNIPNRDWAVEYYTQRAQRPGTMIITEGAFISPQAGGYDNAPGVWSEEQMVEWTKIFNAIHEKKSFVWVQLWVLGWAAFPDNLARDGLRYDSASDNVFMDAEQEAKAKKANNPQHSLTKDEIKQYIKEYVQAAKNSIAAGADGVEIHSANGYLLNQFLDPHSNTRTDEYGGSIENRARFTLEVVDALVEAIGHEKVGLRLSPYGVFNSMSGGAETGIVAQYAYVAGELEKRAKAGKRLAFVHLVEPRVTNPFLTEGEGEYEGGSNDFVYSIWKGPVIRAGNFALHPEVVREEVKDKRTLIGYGRFFISNPDLVDRLEKGLPLNKYDRDTFYQMSAHGYIDYPTYEEALKLGWDKK
Conditions	melting temperature, co-solvent: 2-propanol [°C]	melting temperature, co-solvent: dimethyl sulfoxide [°C]	melting temperature, co-solvent: ethanol [°C]	melting temperature, co-solvent: methanol [°C]	melting temperature, co-solvent: n-propanol [°C]	specific initial activity, co-solvent: 2-propanol	specific initial activity, co-solvent: dimethyl sulfoxide	specific initial activity, co-solvent: ethanol	specific initial activity, co-solvent: methanol	specific initial activity, co-solvent: n-propanol
[1], co-solvent concentration (% v/v): 0	45	45	45.3	46	45	–	–	–	–	–
[1], co-solvent concentration (% v/v): 5	44	44.3	43.3	45	40.3	–	–	–	–	–
[1], co-solvent concentration (% v/v): 10	41.3	43.3	42	43	34.7	–	–	–	–	–
[1], co-solvent concentration (% v/v): 15	37.3	42	39.7	42	31.7	–	–	–	–	–
[1], co-solvent concentration (% v/v): 20	34.7	40.7	37.7	40.3	31	–	–	–	–	–
[1], co-solvent concentration (% v/v): 25	33.7	39.3	35.3	37.7	30.3	–	–	–	–	–
[1], co-solvent concentration (% v/v): 30	28.3	37.3	34.3	34.7	27.3	–	–	–	–	–
[2], co-solvent concentration (% v/v): 0	–	–	–	–	–	1.22	1.31	1.49	1.55	1.3
[2], co-solvent concentration (% v/v): 5	–	–	–	–	–	1.54	1.43	1.58	1.72	1.59
[2], co-solvent concentration (% v/v): 10	–	–	–	–	–	1.7	1.35	1.78	1.81	1.83
[2], co-solvent concentration (% v/v): 15	–	–	–	–	–	1.86	1.31	1.97	2.07	1.81
[2], co-solvent concentration (% v/v): 20	–	–	–	–	–	1.8	1.38	2	2.23	1.86
[2], co-solvent concentration (% v/v): 25	–	–	–	–	–	2	1.32	2.1	2.42	1.84
[2], co-solvent concentration (% v/v): 30	–	–	–	–	–	2.05	1.32	2.46	2.58	1.96

Reference: the supplement of paper PMC11208486
